The target of experiment [1] is T1, GST-SHARPIN (Homo sapiens, UniProt Q9H0F6).
T1 sequence (Q9H0F6 1-387): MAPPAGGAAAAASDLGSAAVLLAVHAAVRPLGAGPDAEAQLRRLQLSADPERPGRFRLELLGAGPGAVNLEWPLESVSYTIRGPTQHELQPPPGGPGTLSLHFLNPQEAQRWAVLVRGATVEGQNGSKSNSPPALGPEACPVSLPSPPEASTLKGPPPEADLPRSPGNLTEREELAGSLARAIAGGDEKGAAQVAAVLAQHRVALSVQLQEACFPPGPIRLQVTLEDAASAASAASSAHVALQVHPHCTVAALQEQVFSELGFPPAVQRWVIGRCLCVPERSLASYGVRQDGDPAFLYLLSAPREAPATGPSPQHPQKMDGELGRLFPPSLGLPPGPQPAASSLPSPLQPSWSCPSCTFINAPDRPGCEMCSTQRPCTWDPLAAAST
The format is binding. To be noted: 2.5 μM biotinylated peptide on streptavidin-sepharose beads; Western blot. (A western blot detects proteins with antibodies after separation by electrophoresis.)

Experiment [2] concerns the target EDANS-labelled wild-type α2-peptide (α2-wt). Nature of the experiment: fluorescence polarisation.

The results in this text go back to publication PMC3257806 (Nature Cell Biology, 2011).

As for “β1-tail: peptide of the cytoplasmic domain of β1-integrin, biotinylated or unlabelled”, the “interaction of recombinant GST-SHARPIN with biotinylated peptide (pull-down)” value in experiment [1] was “did not interact”.

B1: recombinant GST-SHARPIN (natural protein)
chain: T1 sequence (Q9H0F6 1-387)
For orientation: Kd means a measure of binding affinity in units of concentration. Low readings indicate higher affinity, high ones lower affinity. B1 had a Kd in experiment [2] of 26 µM.
